Results: publication PMC6019071

Tests used:
[1] = molecular target: core CoREST complex LSD1/HDAC1/CoREST1 (LHC) (UniProt O60341); experiment: enzyme inhibition (fluorogenic HDAC deacetylation assay); LHC (1 nM) pretreated 30 min on ice with inhibitor in 50 mM HEPES 7.5, 100 mM KCl, 100 uM InsP6, 0.2 mg/mL BSA; 50 uM fluorogenic peptide substrate, 37 C, 15 min; Ki = IC50/([S]/Km + 1), competitive model
[2] = molecular target: core CoREST complex LSD1/HDAC1/CoREST1 (LHC) (UniProt O60341); experiment: enzyme inhibition (fluorogenic HDAC deacetylation assay); Dixon plot of LHC inhibition by H3K14Hd-modified nucleosomes versus peptide substrate

Ki [1]	fold lower Ki than the corresponding Hd nucleosome [1]	Ki [2]	Substance
60 nM			H3K9Hd containing nucleosome (146 bp mononucleosome with semisynthetic H3K4me2K9Hd) (complex)
40 nM		35 nM	H3K14Hd containing nucleosome (146 bp mononucleosome with semisynthetic H3K4me2K14Hd) (complex)
	30 fold		semisynthetic histone H3 H3K4me2K14Hd (from UniProt P84233 2-136) (natural protein)

Continued, substance first:

Substance	Ki [1]	fold lower Ki than the corresponding Hd nucleosome [1]	Ki [2]
H3K4me2K9Hd(1-34) synthetic H3 peptide (from UniProt P84233 2-35)		30 fold	
H3K4me2K14Hd(1-34) synthetic H3 peptide (from UniProt P84233 2-35)		30 fold	
